Our source for the Activity against toxin-induced cell death in RAW264.7 cells (IC50) and enhancement in the activity of the peptide by polyvalency (against the monovalent peptide) values is patent US20090054317A1.

Bounds are passed on as bounds.

In this experiment the target is ANTXR2 expressed in RAW264.7 cells, Q6DFX2. Nature of the experiment: cell-based or functional assay.
Chain of ANTXR2 expressed in RAW264.7 cells, Q6DFX2 (Q6DFX2 32-487 limits assumed): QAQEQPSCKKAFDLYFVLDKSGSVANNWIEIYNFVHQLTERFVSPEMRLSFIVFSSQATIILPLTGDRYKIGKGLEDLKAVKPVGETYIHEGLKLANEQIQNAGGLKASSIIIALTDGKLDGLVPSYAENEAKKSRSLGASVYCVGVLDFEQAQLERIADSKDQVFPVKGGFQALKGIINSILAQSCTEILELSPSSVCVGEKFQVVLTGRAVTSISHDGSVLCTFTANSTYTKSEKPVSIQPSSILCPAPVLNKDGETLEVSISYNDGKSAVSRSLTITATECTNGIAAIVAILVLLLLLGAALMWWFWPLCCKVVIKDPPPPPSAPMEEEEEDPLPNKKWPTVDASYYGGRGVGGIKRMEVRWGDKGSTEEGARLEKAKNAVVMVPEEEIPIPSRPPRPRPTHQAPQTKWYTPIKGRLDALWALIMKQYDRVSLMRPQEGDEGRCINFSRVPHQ

B1: … (SEQ ID NO: 3)-functionalized liposomes (peptide)
peptide: AWPLSQLDHSYNC
modifications: not checked
In the case of B1, the Activity against toxin-induced cell death in RAW264.7 cells (IC50) is 40 nM and the enhancement in the activity of the peptide by polyvalency (against the monovalent peptide) was more than 50000 fold.
